In the supplement of paper PMC7877785:
± gives the uncertainty stated by the source.

Test: self-splicing fitness, log relative to wild type (ln ratio); higher = more splicing; Tetrahymena group I intron in knt gene, E. coli kanamycin selection, DiMSum; sequences stand for … in CUCUCU…GGAGGGAAAAGUUAUCAGGCAUGCACCUGGUAGCUAGUCUUUAAACCAAUAGAUUGCAUCGGUUUAAAAGGCAAGACCGUCAAAUUGCGGGAAAGGGGUCAACAGCCGUUCAGUACCAAGUCUCAGGGGAAACUUUGAGAUGGCCUUGCAAAGGGUAUGGUAAUAAGCUGACGGACAUGGUCCUAACCACGCAGCCAAGUCCUAAGUCAACAGAUCUUCUGUUGAUAUGGAUGCAGUUCACAGACUAAAUGUCGGUCGGGGAAGAUGUAUUCUUCUCAUAAGAUAUAGUCGGACCUCUCCUUAAUGGGAGCUAGCGGAUGAAGUGAUGCAACACUGGAGCCGCUGGGAACUAAUUUGUAUGCGAAAGUAUAUUGAUUAGUUUUGGAGUACUCGUGGUCG
How it was run: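 Fitness was computed with DiMSum as the error-weighted combination of replicate fold changes, kanamycin versus none, each normalised to wild type. The library randomised all eight intron nucleotides of the P1ex region, with the intron placed in the knt kanamycin-resistance gene on pET-22b(+) in E. coli BL21(DE3). Six replicate transformations were grown overnight at 37°C or 30°C on LB agar with or without 25 μg/mL kanamycin, plus 100 μg/mL carbenicillin, 50 μM IPTG and 0.2% rhamnose. Pooled colonies were amplicon-sequenced on an Illumina HiSeq 2500.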

Sequence	self-splicing fitness (ln) (30 °C)	self-splicing fitness (ln) (37 °C)
GGUGAGCAAUAUUACGUCGU	-2.57 ± 0.15	-1.91 ± 0.2
GGUUAGCAAUAUUACGAACA	-0.6 ± 0.18	0.626 ± 0.25
GGUUAGCAAUAUUACGAGUC	-3 ± 0.39	-1.16 ± 0.23
GGUUAGCAAUAUUACGAUUU	0.309 ± 0.089	0.0839 ± 0.12
GGUUAGCAAUAUUACGCCGG	-2.48 ± 0.5	-3.55 ± 0.42
GGUUAGCAAUAUUACGCCGU	-1.91 ± 0.22	-1.03 ± 0.21
GGUUAGCAAUAUUACGCCUA	0.0795 ± 0.32	-1.32 ± 0.25
GGUUAGCAAUAUUACGCGCG	-0.271 ± 0.15	0.879 ± 0.15
GGUUAGCAAUAUUACGGACG	0.908 ± 0.17	-0.388 ± 0.22
GGUUAGCAAUAUUACGGCUA	-0.605 ± 0.088	0.861 ± 0.13
GGUUAGCAAUAUUACGGUUA	-1.23 ± 0.11	-0.486 ± 0.082
GGUUAGCAAUAUUACGGUUG	-2.73 ± 0.32	-1.57 ± 0.33
GGUUAGCAAUAUUACGGUUU	-0.608 ± 0.086	-0.0158 ± 0.11
GGUUAGCAAUAUUACGUAAG	-0.619 ± 0.14	-0.436 ± 0.23
GGUUAGCAAUAUUACGUCCG	-0.773 ± 0.11	-0.617 ± 0.2
GGUUAGCAAUAUUACGUGCG	-0.0643 ± 0.066	0.0143 ± 0.078
GGUUAGCAAUAUUACGUUGG	-4.01 ± 0.34	-1.72 ± 0.18
GUAAAGCAAUAUUACGAACG	-0.437 ± 0.077	-0.132 ± 0.12
GUAAAGCAAUAUUACGACAA	-0.153 ± 0.12	-0.2 ± 0.13
GUAAAGCAAUAUUACGAGCA	0.322 ± 0.08	0.673 ± 0.11
GUAAAGCAAUAUUACGAUCC	-0.0218 ± 0.18	0.363 ± 0.29
GUAAAGCAAUAUUACGCAAG	-2.89 ± 0.18	-0.51 ± 0.12
GUAAAGCAAUAUUACGCAAU	-0.316 ± 0.098	-0.564 ± 0.16
GUAAAGCAAUAUUACGCACG	-0.557 ± 0.067	-0.242 ± 0.093
GUAAAGCAAUAUUACGCGUA	-1.25 ± 0.094	-0.105 ± 0.12
GUAAAGCAAUAUUACGCUCU	-2.11 ± 0.19	-0.206 ± 0.24

Sequence	self-splicing fitness (ln) (30 °C)	self-splicing fitness (ln) (37 °C)
GUAAAGCAAUAUUACGCUGA	-1.4 ± 0.072	-0.903 ± 0.099
GUAAAGCAAUAUUACGCUUC	-3.5 ± 0.23	-1.97 ± 0.23
GUAAAGCAAUAUUACGGCCC	0.25 ± 0.16	0.443 ± 0.24
GUAAAGCAAUAUUACGGCCU	-0.0192 ± 0.12	0.105 ± 0.12
GUAAAGCAAUAUUACGGGAC	-1.62 ± 0.12	-1.18 ± 0.11
GUAAAGCAAUAUUACGGUGG	-2.81 ± 0.11	-1.48 ± 0.11
GUAAAGCAAUAUUACGGUUA	-0.077 ± 0.058	0.569 ± 0.086
GUAAAGCAAUAUUACGUAAC	-1.7 ± 0.17	-1.38 ± 0.28
GUAAAGCAAUAUUACGUAAU	-1.58 ± 0.073	-0.314 ± 0.098
GUAAAGCAAUAUUACGUAGC	-2.6 ± 0.11	-0.771 ± 0.097
GUAAAGCAAUAUUACGUAGG	-2.5 ± 0.11	-1.35 ± 0.15
GUAAAGCAAUAUUACGUAUG	-4.04 ± 0.25	-0.559 ± 0.12
GUAAAGCAAUAUUACGUCAA	-1.56 ± 0.098	-0.85 ± 0.097
GUAAAGCAAUAUUACGUCAU	-0.555 ± 0.095	-0.359 ± 0.096
GUAAAGCAAUAUUACGUGCU	-2.34 ± 0.11	-0.431 ± 0.12
GUAAAGCAAUAUUACGUGGC	-3.42 ± 0.18	-2.48 ± 0.2
GUACAGCAAUAUUACGAACA	-1.51 ± 0.11	-0.736 ± 0.11
GUACAGCAAUAUUACGACUA	-1.16 ± 0.13	-0.637 ± 0.12
GUACAGCAAUAUUACGAGAA	-2.36 ± 0.45	-1.51 ± 0.27
GUACAGCAAUAUUACGAGGC	-3.95 ± 0.46	-1.41 ± 0.18
GUACAGCAAUAUUACGCACG	-2.42 ± 0.28	-0.89 ± 0.19
GUACAGCAAUAUUACGCGCG	-1.45 ± 0.19	-0.578 ± 0.17
GUACAGCAAUAUUACGCGUG	-2 ± 0.061	-1.42 ± 0.072
GUACAGCAAUAUUACGGCCU	-1.84 ± 0.17	0.0868 ± 0.17
GUACAGCAAUAUUACGGGCC	-3.94 ± 0.3	-1.14 ± 0.15
GUACAGCAAUAUUACGGUUG	-3.9 ± 0.23	-1.86 ± 0.2

Sequence	self-splicing fitness (ln) (30 °C)	self-splicing fitness (ln) (37 °C)
GUACAGCAAUAUUACGUAUU	-3.45 ± 0.14	-2.45 ± 0.17
GUACAGCAAUAUUACGUUUC	-3.44 ± 0.14	-1.87 ± 0.14
GUAGAGCAAUAUUACGACAU	0.278 ± 0.014	0.459 ± 0.033
GUAGAGCAAUAUUACGACUA	-0.724 ± 0.071	0.693 ± 0.11
GUAGAGCAAUAUUACGAGAG	–	-2.05 ± 0.36
GUAGAGCAAUAUUACGAUAC	-1.42 ± 0.13	-0.561 ± 0.18
GUAGAGCAAUAUUACGAUUU	-1.13 ± 0.12	-0.037 ± 0.21
GUAGAGCAAUAUUACGCAUA	-1.58 ± 0.14	-1.59 ± 0.17
GUAGAGCAAUAUUACGCCAC	-1.7 ± 0.29	–
GUAGAGCAAUAUUACGCGAA	-1.12 ± 0.058	-0.709 ± 0.077
GUAGAGCAAUAUUACGCGAG	-1.69 ± 0.14	-0.548 ± 0.14
GUAGAGCAAUAUUACGCGUA	-1.64 ± 0.2	-0.093 ± 0.25
GUAGAGCAAUAUUACGGAAA	-2.18 ± 0.28	-2.18 ± 0.22
GUAGAGCAAUAUUACGGUAU	-1.38 ± 0.083	-0.286 ± 0.1
GUAGAGCAAUAUUACGGUCA	-1.47 ± 0.098	-0.0887 ± 0.12
GUAGAGCAAUAUUACGGUCU	-1.46 ± 0.1	-0.783 ± 0.14
GUAGAGCAAUAUUACGUCAA	-2.01 ± 0.14	-2.38 ± 0.29
GUAGAGCAAUAUUACGUCUA	-1.34 ± 0.11	-0.919 ± 0.13
GUAGAGCAAUAUUACGUCUC	-0.285 ± 0.092	-0.305 ± 0.099
GUAGAGCAAUAUUACGUGAU	-2.29 ± 0.2	-1.36 ± 0.19
GUAGAGCAAUAUUACGUGGG	-2.75 ± 0.17	-2.08 ± 0.2
GUAGAGCAAUAUUACGUGUU	-3.68 ± 0.21	-2.04 ± 0.19
GUAGAGCAAUAUUACGUUCA	-0.476 ± 0.1	-0.627 ± 0.11
GUAGAGCAAUAUUACGUUUA	-2.09 ± 0.17	-1.39 ± 0.17
GUAUAGCAAUAUUACGAAAA	–	-1.18 ± 0.22
